# Laboratory results reported in patent publication US20090029376.
# Positions count from the first letter of the chain named.
# Experiments:
# Experiment in all cases: cleavage_in_vitro
# [1] = molecular target: T1, BamHI(E86P) E86P (Bacillus amyloliquefaciens) (UniProt P23940); conditions: NEB4, 37 C
# T1 sequence: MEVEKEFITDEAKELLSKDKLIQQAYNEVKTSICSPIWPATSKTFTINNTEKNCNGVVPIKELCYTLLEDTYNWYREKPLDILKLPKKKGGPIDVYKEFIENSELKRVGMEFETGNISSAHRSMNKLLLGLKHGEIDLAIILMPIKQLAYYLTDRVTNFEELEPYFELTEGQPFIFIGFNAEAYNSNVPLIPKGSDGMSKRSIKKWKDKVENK
# [2] = molecular target: T2, BamHI-HF E163A/E167T (Bacillus amyloliquefaciens) (UniProt P23940); conditions: NEB4, 37 C
# T2 sequence: T1 sequence with P86E, E163A, E167T
# [3] = system: T3, BsmBI-HF N185Y/R232A (Bacillus stearothermophilus); conditions: NEB4, 55 C
# T3 sequence: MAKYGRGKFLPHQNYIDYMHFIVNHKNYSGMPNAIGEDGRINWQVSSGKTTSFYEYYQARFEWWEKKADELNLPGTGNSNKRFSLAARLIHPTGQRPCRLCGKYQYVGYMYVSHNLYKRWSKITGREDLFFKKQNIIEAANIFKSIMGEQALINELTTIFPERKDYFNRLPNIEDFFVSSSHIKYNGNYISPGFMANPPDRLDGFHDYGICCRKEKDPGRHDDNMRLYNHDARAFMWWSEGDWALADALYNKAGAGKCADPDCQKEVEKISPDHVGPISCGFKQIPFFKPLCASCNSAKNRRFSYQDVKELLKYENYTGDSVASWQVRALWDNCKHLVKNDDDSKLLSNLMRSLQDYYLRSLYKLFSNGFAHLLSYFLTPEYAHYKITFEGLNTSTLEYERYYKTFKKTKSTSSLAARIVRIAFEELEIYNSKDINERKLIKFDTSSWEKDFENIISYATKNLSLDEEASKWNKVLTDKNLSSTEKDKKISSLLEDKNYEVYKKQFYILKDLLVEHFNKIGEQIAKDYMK
# [4] = system: T4, BstXI-HF N65A (Bacillus stearothermophilus); conditions: NEB4, 55 C
# T4 sequence: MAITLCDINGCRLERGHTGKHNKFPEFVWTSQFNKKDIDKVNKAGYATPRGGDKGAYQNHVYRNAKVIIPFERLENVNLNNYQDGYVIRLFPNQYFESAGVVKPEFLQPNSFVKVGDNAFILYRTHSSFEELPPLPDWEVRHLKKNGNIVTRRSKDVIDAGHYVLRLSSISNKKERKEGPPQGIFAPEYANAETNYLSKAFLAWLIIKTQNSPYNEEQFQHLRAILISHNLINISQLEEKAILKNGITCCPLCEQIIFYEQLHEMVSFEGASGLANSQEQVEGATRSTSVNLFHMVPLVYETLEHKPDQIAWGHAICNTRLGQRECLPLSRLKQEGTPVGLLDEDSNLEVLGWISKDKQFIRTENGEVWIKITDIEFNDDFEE
# [5] = molecular target: EcoRI (Escherichia coli RY13) (UniProt P00642); conditions: NEB4, 37 C
# [6] = molecular target: EcoRI-HF K62E (Escherichia coli RY13) (UniProt P00642); conditions: NEB4, 37 C
# [7] = molecular target: T5, PstI-HF D91A (Providencia stuartii 164) (UniProt P00640); conditions: NEB4, 37 C
# T5 sequence: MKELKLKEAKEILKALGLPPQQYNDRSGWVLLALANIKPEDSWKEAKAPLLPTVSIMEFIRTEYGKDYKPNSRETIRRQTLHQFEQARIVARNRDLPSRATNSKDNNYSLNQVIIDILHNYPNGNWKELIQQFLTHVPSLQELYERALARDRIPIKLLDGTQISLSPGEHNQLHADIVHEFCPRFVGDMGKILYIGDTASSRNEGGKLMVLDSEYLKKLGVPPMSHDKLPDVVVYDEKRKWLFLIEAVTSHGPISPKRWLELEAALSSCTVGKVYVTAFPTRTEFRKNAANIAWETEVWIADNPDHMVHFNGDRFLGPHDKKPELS
# [8] = system: T6, SbfI (Streptomyces species Bf-6); conditions: NEB4, 37 C
# T6 sequence: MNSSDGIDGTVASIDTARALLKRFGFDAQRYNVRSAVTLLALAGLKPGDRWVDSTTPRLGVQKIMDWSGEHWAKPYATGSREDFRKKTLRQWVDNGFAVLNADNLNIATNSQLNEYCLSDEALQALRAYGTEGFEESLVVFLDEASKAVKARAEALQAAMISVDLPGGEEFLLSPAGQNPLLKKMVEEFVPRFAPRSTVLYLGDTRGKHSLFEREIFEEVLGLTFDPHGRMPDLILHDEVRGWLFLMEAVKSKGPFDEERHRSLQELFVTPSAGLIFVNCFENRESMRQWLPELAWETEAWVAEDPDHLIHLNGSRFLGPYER
# [9] = system: T7, SbfI-HF K251A (Streptomyces species Bf-6); conditions: NEB4, 37 C
# T7 sequence: T6 sequence with K251A
# [10] = molecular target: T8, ScaI-HF H193A/S201F (Streptomyces caespitosus) (UniProt O52691); conditions: NEB2, 37 C
# T8 sequence: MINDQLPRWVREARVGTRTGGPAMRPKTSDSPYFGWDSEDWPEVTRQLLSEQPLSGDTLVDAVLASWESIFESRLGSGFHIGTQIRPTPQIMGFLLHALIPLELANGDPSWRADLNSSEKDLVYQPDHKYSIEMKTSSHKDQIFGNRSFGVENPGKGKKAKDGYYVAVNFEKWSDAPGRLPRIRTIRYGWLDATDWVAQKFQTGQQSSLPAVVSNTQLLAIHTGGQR
substance,measurement,setting,value
lambda phage DNA,activity (fidelity index),[1],> 4000
same,activity (fidelity index),[2],> 4000
same,activity (fidelity index),[3],> 500
same,activity (fidelity index),[4],> 250
same,activity (fidelity index),[5],4
same,activity (fidelity index),[6],16000
same,activity (fidelity index),[7],> 2000
same,activity (fidelity index),[8],8
same,activity (fidelity index),[9],250
same,activity (fidelity index),[10],120
